Measured values reported in publication PMC2217618.

Biological target: RGDPEG-avidin (UniProt P02701)
Experiment: ELISA

Sequence of Bio-ULS-TRAIL (P50591 114-281): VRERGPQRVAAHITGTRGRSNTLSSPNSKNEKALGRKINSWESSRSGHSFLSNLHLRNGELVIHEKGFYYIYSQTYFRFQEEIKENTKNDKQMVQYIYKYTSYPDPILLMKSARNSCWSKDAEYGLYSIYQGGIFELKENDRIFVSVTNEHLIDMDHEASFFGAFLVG
Sequence of RGDPEG-avidin (P02701 25-152): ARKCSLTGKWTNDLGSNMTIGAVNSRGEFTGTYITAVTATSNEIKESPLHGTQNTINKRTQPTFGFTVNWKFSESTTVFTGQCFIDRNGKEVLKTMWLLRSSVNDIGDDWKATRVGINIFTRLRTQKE

Substance: Bio-ULS-TRAIL (from UniProt P50591 114-281) (ligand)
- binding less than Bio-NHS-TRAIL: 40 % less
